Data as given in patent US20150086562A1 (BIOATLA, published 2015).

How the values were obtained:
[1] = target: T1, recombinant CD22 extracellular domain; assay: The sheet does not state the method. The column 'KD (nM)' stands beside the confocal data, and the target form is taken from FIGURE 18. FIGURE 18 prints 0.25 for this clone.
T1 construct: Kept apart from m18, which is cell-surface CD22; also called CD22 (analyte in the BIAcore runs); CD22 ECD
Description: (§1) BIAcore 3000, GE Healthcare was used to determine binding curves and kinetic parameters. An anti-human Fc (1.8 mg/ml) was diluted to a concentration of 50 ug/ml in NaOAc buffer (10 mM, pH 4.8) and coupled to the carboxymethylated dextran matrix of a CM-5 sensor chip using the manufacturer's amine-coupling chemistry as described in the BIAcore systems manual. Using the surface preparation wizard aiming for 10000RU, the carboxyl groups on the sensor surfaces were first activated with NHS/EDC followed by the addition of the anti-human Fc. The remaining activated groups were blocked by the injection of 1M ethanolamine. Each of the flow cells was coupled individually. Employing these conditions, the four flow cell surfaces containing 7554-9571 RU of anti-human Fc were prepared. In preliminary experiments, it was determine that three injections (15 ul at 30 ul/min) 100 mM H₃PO₄/0.05% CHAPS would efficiently remove the bound immunoglobulin and preserve the binding capacity of the immobilized anti-human Fc.
(§2) Experiments were performed on the BIAcore 3000 at 25° C. and a flow rate of 30 ul/min. […] Using the 1:1 model in BIAevaluation 4.1, both a local fit and global fit was done for both dissociation (kd, [s−1] and association (ka, [M⁻¹s⁻¹]) and the dissociation constant (KD, [M]) calculated (kd/ka).

[2] = target: T1, recombinant CD22 extracellular domain; assay: The sheet does not state the method. The column 'KD (nM)' stands beside the confocal data, and the target form is taken from FIGURE 18. FIGURE 18 prints 0.30 for this clone.
Description: as §1, §2
Target sequence in this assay (chain, as listed by the source limits assumed): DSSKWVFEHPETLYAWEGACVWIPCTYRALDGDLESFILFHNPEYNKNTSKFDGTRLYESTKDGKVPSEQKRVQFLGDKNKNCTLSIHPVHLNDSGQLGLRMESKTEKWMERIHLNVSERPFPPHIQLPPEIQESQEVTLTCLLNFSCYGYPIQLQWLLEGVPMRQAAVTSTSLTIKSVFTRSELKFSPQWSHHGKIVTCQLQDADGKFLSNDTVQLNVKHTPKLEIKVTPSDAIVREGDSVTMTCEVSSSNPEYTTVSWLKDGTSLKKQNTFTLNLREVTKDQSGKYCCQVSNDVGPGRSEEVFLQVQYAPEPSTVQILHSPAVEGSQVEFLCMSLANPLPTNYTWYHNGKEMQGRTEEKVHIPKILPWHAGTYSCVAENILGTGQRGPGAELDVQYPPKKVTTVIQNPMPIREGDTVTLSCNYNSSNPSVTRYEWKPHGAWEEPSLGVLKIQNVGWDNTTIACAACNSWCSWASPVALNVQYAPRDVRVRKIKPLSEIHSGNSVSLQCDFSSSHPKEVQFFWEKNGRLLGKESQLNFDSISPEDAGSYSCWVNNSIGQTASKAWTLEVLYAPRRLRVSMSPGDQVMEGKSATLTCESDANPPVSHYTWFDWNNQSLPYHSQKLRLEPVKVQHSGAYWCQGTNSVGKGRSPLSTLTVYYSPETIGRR

Binder | Kd [1] [nM] | Kd [2] [nM]
VM1011 (antibody, V domains shown, Humanized antibody with human constant region; also called anti-CD22 Mab clone VM1011) VH: QVQLQESGPGLVKPSQTLSLTCTVSGYVFTSYWLHWIRQPPGKGLEWIGYINPRNDYTEYNRIFKGRVTITADKSTSTAYMELSSLRSEDTAVYYCARRGITTFYWGQG VL: EIVLTQSPATLSLSPGERATLSCKSSQSVLYSAVEKNYLAWYQQKPGQAPRLLIYWASTRERGIPDRFSGSGSGTDFTLTISRLEPEDFAVYYCKQYLSSWTFGQG | 0.26 | –
VM1006 (antibody, V domains shown, Humanized antibody with human constant region; also called anti-CD22 Mab clone VM1006) VH: QVQLVQSGAEVKKPGASVKVSCKASGYVFTSYWLHWIRQSPSRGLEWLGYINPRNDYTEYNRIFKGRFVFSLDTSVSTAYLQICSLKAEDTAVYYCARRGITTFYWGQG VL: DIQMTQSPSSLSASVGDRVTITCKSSQSVLYSAVEKNYLAWYQQKPGKAPKLLIYWASTRERGIPDRFSGSGSGTDFTLTISRLEPEDFAVYYCKQYLSSWTFGQG | – | 2.7
